Results as given in paper PMC7617692, “Structural evolution of fibril polymorphs during amyloid assembly” (Cell, 2023).
Bridge positions count the residues as written; N and C are the ends. Ends that are not written are not given here.

Biological target: the molecule itself
Assay: cryo-EM structure; fibrils grown quiescently in glass vials, 30 uM peptide, 20 mM ammonium acetate pH 6.8, room temperature; sampled at 3 weeks (lag phase), undiluted; helical reconstruction; repeated with a second reaction

B1: human islet amyloid polypeptide S20G variant (IAPP-S20G) (peptide)
chain: KCNTATCATQRLANFLVHSGNNFGAILSSTNVGSNTY-NH2
modifications: disulfide 2-7; N-terminus assumed
SMILES: CC[C@H](C)[C@H](NC(=O)[C@H](C)NC(=O)CNC(=O)[C@H](Cc1ccccc1)NC(=O)[C@H](CC(N)=O)NC(=O)[C@H](CC(N)=O)NC(=O)CNC(=O)[C@H](CO)NC(=O)[C@H](Cc1c[nH]cn1)NC(=O)[C@@H](NC(=O)[C@H](CC(C)C)NC(=O)[C@H](Cc1ccccc1)NC(=O)[C@H](CC(N)=O)NC(=O)[C@H](C)NC(=O)[C@H](CC(C)C)NC(=O)[C@H](CCCNC(=N)N)NC(=O)[C@H](CCC(N)=O)NC(=O)[C@@H](NC(=O)[C@H](C)NC(=O)[C@@H]1CSSC[C@H](NC(=O)[C@@H](N)CCCCN)C(=O)N[C@@H](CC(N)=O)C(=O)N[C@@H]([C@@H](C)O)C(=O)N[C@@H](C)C(=O)N[C@@H]([C@@H](C)O)C(=O)N1)[C@@H](C)O)C(C)C)C(=O)N[C@@H](CC(C)C)C(=O)N[C@@H](CO)C(=O)N[C@@H](CO)C(=O)N[C@H](C(=O)N[C@@H](CC(N)=O)C(=O)N[C@H](C(=O)NCC(=O)N[C@@H](CO)C(=O)N[C@@H](CC(N)=O)C(=O)N[C@H](C(=O)N[C@@H](Cc1ccc(O)cc1)C(N)=O)[C@@H](C)O)C(C)C)[C@@H](C)O
notes: islet amyloid polypeptide (IAPP, amylin), human, 37-residue hormone, familial early-onset T2D variant S20G; Assembles into amyloid fibrils of two, three or four protofilaments; the number of chains in a fibril is open-ended; Purity >95% by analytical HPLC, mass 3873.3 Da; also called hIAPP-S20G; S20G-IAPP; source: synthetic peptide (Fmoc solid phase, oxidised, reverse-phase HPLC purified)
binding result: binds
